This note sets out measurements from article doi:10.1101/2021.04.12.439584 (bioRxiv, 2021).

This test has as its target Rabbit skeletal muscle actin (rabbit, UniProt P68135 1-377). The test can be described thus: co-sedimentation.

B1: LmForminB FH2 domain (714aa-1149aa) (domain or fragment)
chain: KPKPQYTGPRLKTFFWKKILKPSGIWAASDTDDVRRAVIDESFMLKLFKLKAVAQPSAAEGAAEKSEQERRSQLRSNVFTGQRLQNMGIALKRVQVPVEVLCKALITCDSAVLPPERREMLTAALPTTEDVTALTAEKQAGRSVWTEVETYLYTAATTVKDVRERLQLWTAAEELEDTVQSISSLLSSVDAAVCAITHRNGRFARMMRIILAFGNHLNRGTPHADAEGFRLESLNQLNFVKSSDGKTTVLMALVVSLMDSGRGRSERGGGTTSAPGADNDDDDVRNALRFVEDVSCVRAVANSPLQDMGQQVSQLNFTLQRMRRVVEEAKDTKAWYDKRLPSVKAEEVPDALPGLLREAVDRYLATVGQIALRYQQLRDDVSAMMATYGEDPNADETVIWGYVLQFSKDVQRCVDTVAAVHLTKRRLMGMPEATEQ
A word on the Kd: it is the concentration at which binding is half-saturated. Read a low Kd as a tighter complex. The molecule B1 came in with a Kd of 200 nM.

B2: LmForminA FH2 domain (695aa-1092aa) (domain or fragment)
chain: ASGAAAPMLNSSTTRNVPINGAVGDSDDAIFKAARPIELTAGARDKLLALFPKAAPKHVIEEDEATSRVQRILDVNRDRNVGIVLKFIRLPIQQIEASVRTFDTLTLGEERISGLLKIIPTSDDFEAIARAQKEHGGPWKRAEEQQLPQAVRFFLMTQRIDHYAERIHAWSLRYELHGRLEYLEQKLSKADKAIDATFASPSLPDLLYFLLEVSNFLNAGSRFQGAKGFPITQLPQIMDFKTTDGKGTLLQYVAEILDTVNPHLQAISSELMPAVDEGRDIDVASIEQELKKLRGRLQKCKHLIEQLKNDVRWTNVLGKFIYRSLPELERVEKLAESINGKAERLQEFLCEKKETFSLNEVLRVLSNFCKRYEQEREKQRLRQERQDRMEDNKQRRQS
In turn, B2 gave a Kd of 1840 nM.
